Test results published in US20180155451A1 (published 2018).
Residue numbers refer to the chain shown, from its start.

T1: FcγRIIa R (human, UniProt P12318 34-217)
T1 construct: extracellular domain; also called FcgRIIa R; FcγRIIa type R
T1 sequence (looked up): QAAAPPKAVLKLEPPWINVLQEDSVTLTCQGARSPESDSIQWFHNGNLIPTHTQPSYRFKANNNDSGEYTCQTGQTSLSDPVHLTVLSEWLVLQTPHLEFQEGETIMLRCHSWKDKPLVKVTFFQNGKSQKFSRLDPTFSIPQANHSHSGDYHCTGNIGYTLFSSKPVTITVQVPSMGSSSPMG

T2: FcγRIIb (human, UniProt P31994 43-217)
T2 construct: extracellular domain; Soluble extracellular domain with C-terminal His tag, expressed in FreeStyle293 cells; also called FcgRIIb; 2b; not shown: C-terminal His tag
T2 sequence (looked up): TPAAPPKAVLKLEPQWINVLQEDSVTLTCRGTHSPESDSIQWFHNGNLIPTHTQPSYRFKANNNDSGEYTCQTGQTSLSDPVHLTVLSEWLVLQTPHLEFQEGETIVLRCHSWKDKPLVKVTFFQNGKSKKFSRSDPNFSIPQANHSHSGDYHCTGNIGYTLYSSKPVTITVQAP

T3: FcγRIIa H (human, UniProt P12318 34-217)
T3 construct: extracellular domain; Soluble extracellular domain with C-terminal His tag, expressed in FreeStyle293 cells; also called FcgRIIa H; 2aH; not shown: C-terminal His tag
T3 sequence (looked up): T1 sequence (looked up) with R134H

T4: FcγRIIb (human, UniProt P31994 43-217)
T4 construct: extracellular domain; also called FcgRIIb
T4 sequence (looked up): T2 sequence (looked up)

B1: GpH7-A5/GpH7-B3 variant P329_01G/GpL16-k0 (antibody, human IgG1, kappa)
heavy 1: not shown
heavy 2: not shown
light: DIVMTQSPLSLPVTPGEPASISCQASESLVHSNRNTYLHWYLQKPGQSPQLLIYKVSNRFSGVPDRFSGSGSGTDFTLKISRVEAEDVGVYYCSQNTHVPPTFGQGTKVEIERTVAAPSVFIFPPSDEQLKSGTASVVCLLNNFYPREAKVQWKVDNALQSGNSQESVTEQDSKDSTYSLSSTLTLSKADYEKHKVYACEVTHQGLSSPVTKSFNRGEC
notes: He Ab; IgG1; mutation in one H chain only
B2: GpH7-A5/GpH7-B3 variant A330_12R/GpL16-k0 (antibody, human IgG1, kappa)
heavy 1: not shown
heavy 2: not shown
light: B1 light
notes: as for B1
B3: GpH7-A5/GpH7-B3 variant A330_09D/GpL16-k0 (antibody, human IgG1, kappa)
heavy 1: not shown
heavy 2: not shown
light: B1 light
notes: as for B1
B4: GpH7-A5/GpH7-B3 variant N325_12R/GpL16-k0 (antibody, human IgG1, kappa)
heavy 1: not shown
heavy 2: not shown
light: B1 light
notes: as for B1
B5: GpH7-A5/GpH7-B3 variant N325_02A/GpL16-k0 (antibody, human IgG1, kappa)
heavy 1: not shown
heavy 2: not shown
light: B1 light
notes: as for B1
B6: GpH7-A5/GpH7-B3 variant A330_13S/GpL16-k0 (antibody, human IgG1, kappa)
heavy 1: not shown
heavy 2: not shown
light: B1 light
notes: as for B1
B7: GpH7-A5/GpH7-B3 variant N325_16H/GpL16-k0 (antibody, human IgG1, kappa)
heavy 1: not shown
heavy 2: not shown
light: B1 light
notes: as for B1
B8: GpH7-A5/GpH7-B3 variant I336_20W/GpL16-k0 (antibody, human IgG1, kappa)
heavy 1: not shown
heavy 2: not shown
light: B1 light
notes: as for B1
B9: GpH7-A5/GpH7-B3 variant A330_14T/GpL16-k0 (antibody, human IgG1, kappa)
heavy 1: not shown
heavy 2: not shown
light: B1 light
notes: as for B1
B10: GpH7-A5/GpH7-B3 variant A330_03V/GpL16-k0 (antibody, human IgG1, kappa)
heavy 1: not shown
heavy 2: not shown
light: B1 light
notes: as for B1
B11: GpH7-A5/GpH7-B3 variant A330_08L/GpL16-k0 (antibody, human IgG1, kappa)
heavy 1: not shown
heavy 2: not shown
light: B1 light
notes: as for B1
B12: GpH7-A5/GpH7-B3 variant A330_18N/GpL16-k0 (antibody, human IgG1, kappa)
heavy 1: not shown
heavy 2: not shown
light: B1 light
notes: as for B1
B13: GpH7-A5/GpH7-B3 variant N325_05P/GpL16-k0 (antibody, human IgG1, kappa)
heavy 1: not shown
heavy 2: not shown
light: B1 light
notes: as for B1
B14: GpH7-A5/GpH7-B3 variant A330_10E/GpL16-k0 (antibody, human IgG1, kappa)
heavy 1: not shown
heavy 2: not shown
light: B1 light
notes: as for B1
B15: GpH7-A5/GpH7-B3 variant A330_07I/GpL16-k0 (antibody, human IgG1, kappa)
heavy 1: not shown
heavy 2: not shown
light: B1 light
notes: as for B1
B16: GpH7-A5/GpH7-B3 variant N325_11K/GpL16-k0 (antibody, human IgG1, kappa)
heavy 1: not shown
heavy 2: not shown
light: B1 light
notes: as for B1
B17: GpH7-A5/GpH7-B3 variant S239_18N/GpL16-k0 (antibody, human IgG1, kappa)
heavy 1: not shown
heavy 2: not shown
light: B1 light
notes: Heterodimerized anti-glypican-3 IgG1; alteration in the GpH7-B3 chain only; also called He Ab

Molecular target: T1, FcγRIIa R
Test: He/Con_2aR divided by He/Con_2b (FcγRIIa R over FcγRIIb); SPR (Biacore)

| IIaR/IIb (He_2aR/2b) [ratio] | Binder |
| --- | --- |
| 1.32 | B1 |
| 1.22 | B2 |
| 1.27 | B3 |
| 1.37 | B4 |
| 1.31 | B5 |
| 1.47 | B6 |
| 1.27 | B7 |
| 1.5 | B8 |
| 1.23 | B9 |
| 1.43 | B10 |
| 1.26 | B11 |
| 1.27 | B12 |
| 1.63 | B13 |
| 1.23 | B14 |
| 1.27 | B15 |
| 1.57 | B16 |

Molecular target: T2, FcγRIIb
Test: SPR (Biacore), antibody captured, FcγR as analyte; relative to HeCon Ab
Experimental: (§1) The heterodimerized antibodies He Abs in which one of the H chains was introduced with an alteration were assayed for their binding activities to each activating FcγR and inhibitory FcγR according to the method described in Example 4. […] The activating FcγRs in FIGS. 26, 27, 28, and 29 are FcγRIa, FcγRIIa (R), FcγRIIa (H), and FcγRIIIa, respectively.
(§2) Analysis of interaction between objective antibody and the FcγR was carried out using Biacore T100 (GE Healthcare). HBS-EP+ (GE Healthcare) was used as the running buffer, and the measurement temperature was set to 25° C. Chips produced by immobilizing the antigen peptide by the amine coupling method to a Series S Sencor Chip CM5 (GE Healthcare), or alternatively, chips produced by allowing preliminarily biotinylated antigen peptides to interact with and immobilize onto a Series S Sensor Chip SA (certified) (GE Healthcare) were used. Antibodies of interest were captured onto an antigen peptide-immobilized chip, and allowed to interact to each FcγR diluted with running buffer. To regenerate and repeatedly use the chip, the antibodies captured on the chip were washed off by reacting 10 mM glycine-HCl, pH 1.5.

| He/Con_2b | Binder |
| --- | --- |
| 119 % of GpH7-A5/GpH7-B3/GpL16-k0 (=100) | B17 |

Molecular target: T3, FcγRIIa H
Test: as above
Experimental: as §1, §2

| He/Con_2aH | Binder |
| --- | --- |
| 94.2 % of GpH7-A5/GpH7-B3/GpL16-k0 (=100) | B17 |

Molecular target: T1, FcγRIIa R
Test: SPR (Biacore), captured antibody, FcγR analyte; binding relative to GpH7-A5/GpH7-B3/GpL16-k0 = 100

| He/Con_2aR (IIaR binding) [control=100] | Binder |
| --- | --- |
| 55 | B1 |
| 104 | B2 |
| 70.9 | B3 |
| 26.1 | B4 |
| 84.1 | B5 |
| 60.8 | B6 |
| 89 | B7 |
| 30.3 | B8 |
| 95.5 | B9 |
| 74.9 | B10 |
| 88.8 | B11 |
| 81.1 | B12 |
| 42.2 | B13 |
| 86.6 | B14 |
| 85.6 | B15 |
| 16.2 | B16 |

Molecular target: T4, FcγRIIb
Test: as above

| He/Con_2b (IIb binding) [control=100] | Binder |
| --- | --- |
| 41.7 | B1 |
| 84.8 | B2 |
| 55.6 | B3 |
| 19.1 | B4 |
| 64.4 | B5 |
| 41.3 | B6 |
| 70.1 | B7 |
| 20.3 | B8 |
| 77.9 | B9 |
| 52.4 | B10 |
| 70.5 | B11 |
| 63.7 | B12 |
| 26 | B13 |
| 70.1 | B14 |
| 67.1 | B15 |
| 10.4 | B16 |
